The values that follow come from paper PMC11375168 (Nature Communications, 2024).

This series deals with the molecule itself. The series is described as follows: cryo-EM structure.

B1: Mycobacterium tuberculosis EfpA (MtEfpA), full length, with C-terminal GFP and Strep-Tag II (natural protein)
chain: MTALNDTERAVRNWTAGRPHRPAPMRPPRSEETASERPSRYYPTWLPSRSFIAAVIAIGGMQLLATMDSTVAIVALPKIQNELSLSDAGRSWVITAYVLTFGGLMLLGGRLGDTIGRKRTFIVGVALFTISSVLCAVAWDEATLVIARLSQGVGSAIASPTGLALVATTFPKGPARNAATAVFAAMTAIGSVMGLVVGGALTEVSWRWAFLVNVPIGLVMIYLARTALRETNKERMKLDATGAILATLACTAAVFAFSIGPEKGWMSGITIGSGLVALAAAVAFVIVERTAENPVVPFHLFRDRNRLVTFSAILLAGGVMFSLTVCIGLYVQDILGYSALRAGVGFIPFVIAMGIGLGVSSQLVSRFSPRVLTIGGGYLLFGAMLYGSFFMHRGVPYFPNLVMPIVVGGIGIGMAVVPLTLSAIAGVGFDQIGPVSAIALMLQSLGGPLVLAVIQAVITSRTLYLGGTTGPVKFMNDVQLAALDHAYTYGLLWVAGAAIIVGGMALFIGYTPQQVAHAQEVKEAIDAGEL
Consider B1, for which the stoichiometry N (as a rule, a count of units in the complex or per binding partner) was 2.
